T1: ヒトFcγRIIb (human, UniProt P31994 43-217)
T1 construct: extracellular domain; for the crystals it was expressed with kifunensine and its N-glycans trimmed with Endo F1; also called FcγRIIb細胞外領域
T1 sequence (looked up): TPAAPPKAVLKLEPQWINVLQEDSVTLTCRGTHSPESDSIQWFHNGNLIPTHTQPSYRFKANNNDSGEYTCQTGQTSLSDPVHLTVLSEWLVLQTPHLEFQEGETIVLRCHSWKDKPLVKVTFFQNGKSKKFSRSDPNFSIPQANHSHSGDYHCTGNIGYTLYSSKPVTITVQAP


Target: T1, ヒトFcγRIIb
Assay: SPR, KD

Row | Binder | binding result
1 | IL6R-BP423/IL6R-L (antibody, human IgG1) heavy: QVQLQESGPGLVKPSETLSLTCAVSGHSISHDHAWSWVRQPPGEGLEWIGFISYSGITNYNPSLQGRVTISRDNSKNTLYLQMNSLRAEDTAVYYCARSLARTTAMDYWGEGTLVTVSSASTKGPSVFPLAPSSKSTSGGTAALGCLVKDYFPEPVTVSWNSGALTSGVHTFPAVLQSSGLYSLSSVVTVPSSSLGTQTYICNVNHKPSNTKVDKKVEPKSCDKTHTCPPCPAPDLLGDDSVFLFPPKPKDTLMISRTPEVTCVVVDVAEEDGEVKFNWYVDGVEVHNAKTKPREEQYNSTYRVVSVLTVLHQDWLNGKEYKCKVSNKALPRPIEKTISKAKGQPREPQVYTLPPSRDELTKNQVSLTCLVKGFYPSDIAVEWESNGQPENNYKTTPPVLDSDGSFFLYSKLTVDKSRWQQGNVFSCSVMHEALHNHYTQESLSLSP light: DIQMTQSPSSLSASVGDRVTITCRASQDISSYLNWYQQKPGKAPKLLIYYTSRLHSGVPSRFSGSGSGTDFTFTISSLQPEDIATYYCQQGNTLPYTFGQGTKVEIK | binds
2 | IL6R-BP267/IL6R-LにS267Eの改変が加えられた改変体 (antibody, human IgG1, also called IL6R-BP267 + S267E) heavy: QVQLQESGPGLVKPSETLSLTCAVSGHSISHDHAWSWVRQPPGEGLEWIGFISYSGITNYNPSLQGRVTISRDNSKNTLYLQMNSLRAEDTAVYYCARSLARTTAMDYWGEGTLVTVSSASTKGPSVFPLAPSSKSTSGGTAALGCLVKDYFPEPVTVSWNSGALTSGVHTFPAVLQSSGLYSLSSVVTVPSSSLGTQTYICNVNHKPSNTKVDKKVEPKSCDKTHTCPPCPAPDLLGDDSVFLFPPKPKDTLMISRTPEVTCVVVDVEEEDGEVKFNWYVDGVEVHNAKTKPREEQYNSTYRVVSVLTVLHQDWLNGKEYKCKVSNKALPAPIEKTISKAKGQPREPQVYTLPPSRDELTKNQVSLTCLVKGFYPSDIAVEWESNGQPENNYKTTPPVLDSDGSFFLYSKLTVDKSRWQQGNVFSCSVMHEALHNHYTQESLSLSP light: DIQMTQSPSSLSASVGDRVTITCRASQDISSYLNWYQQKPGKAPKLLIYYTSRLHSGVPSRFSGSGSGTDFTFTISSLQPEDIATYYCQQGNTLPYTFGQGTKVEIK | binds

Next, values leading:

Row | binding result | Binder
3 | binds | IL6R-BP267/IL6R-LにE269Dの改変が加えられた改変体 (antibody, human IgG1, also called IL6R-BP267 + E269D) heavy: QVQLQESGPGLVKPSETLSLTCAVSGHSISHDHAWSWVRQPPGEGLEWIGFISYSGITNYNPSLQGRVTISRDNSKNTLYLQMNSLRAEDTAVYYCARSLARTTAMDYWGEGTLVTVSSASTKGPSVFPLAPSSKSTSGGTAALGCLVKDYFPEPVTVSWNSGALTSGVHTFPAVLQSSGLYSLSSVVTVPSSSLGTQTYICNVNHKPSNTKVDKKVEPKSCDKTHTCPPCPAPDLLGDDSVFLFPPKPKDTLMISRTPEVTCVVVDVSEDDGEVKFNWYVDGVEVHNAKTKPREEQYNSTYRVVSVLTVLHQDWLNGKEYKCKVSNKALPAPIEKTISKAKGQPREPQVYTLPPSRDELTKNQVSLTCLVKGFYPSDIAVEWESNGQPENNYKTTPPVLDSDGSFFLYSKLTVDKSRWQQGNVFSCSVMHEALHNHYTQESLSLSP light: DIQMTQSPSSLSASVGDRVTITCRASQDISSYLNWYQQKPGKAPKLLIYYTSRLHSGVPSRFSGSGSGTDFTFTISSLQPEDIATYYCQQGNTLPYTFGQGTKVEIK
4 | binds | IL6R-BP267/IL6R-LにS267Aの改変が加えられた改変体 (antibody, human IgG1, also called IL6R-BP267 + S267A) heavy: QVQLQESGPGLVKPSETLSLTCAVSGHSISHDHAWSWVRQPPGEGLEWIGFISYSGITNYNPSLQGRVTISRDNSKNTLYLQMNSLRAEDTAVYYCARSLARTTAMDYWGEGTLVTVSSASTKGPSVFPLAPSSKSTSGGTAALGCLVKDYFPEPVTVSWNSGALTSGVHTFPAVLQSSGLYSLSSVVTVPSSSLGTQTYICNVNHKPSNTKVDKKVEPKSCDKTHTCPPCPAPDLLGDDSVFLFPPKPKDTLMISRTPEVTCVVVDVAEEDGEVKFNWYVDGVEVHNAKTKPREEQYNSTYRVVSVLTVLHQDWLNGKEYKCKVSNKALPAPIEKTISKAKGQPREPQVYTLPPSRDELTKNQVSLTCLVKGFYPSDIAVEWESNGQPENNYKTTPPVLDSDGSFFLYSKLTVDKSRWQQGNVFSCSVMHEALHNHYTQESLSLSP light: DIQMTQSPSSLSASVGDRVTITCRASQDISSYLNWYQQKPGKAPKLLIYYTSRLHSGVPSRFSGSGSGTDFTFTISSLQPEDIATYYCQQGNTLPYTFGQGTKVEIK
